Patent US20120014911

Target: T1, GST-IFNAR1 (wild type): bacterially expressed cytoplasmic domain of IFNAR1 fused with GST, P17181
T1 chain: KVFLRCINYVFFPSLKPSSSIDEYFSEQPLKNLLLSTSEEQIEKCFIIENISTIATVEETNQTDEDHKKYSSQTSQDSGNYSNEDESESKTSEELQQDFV

Row | Protein | in vitro phosphorylation of GST-IFNAR1 on Ser535 (immunoblot with anti-pS535) | immunokinase assay: phosphorylation of GST-IFNAR1 on Ser535
1 | GST-tagged PKD2 (human, wild type) expressed in 293T cells and purified with glutathione beads (protein) MATAPSYPAGLPGSPGPGSPPPPGGLELQSPPPLLPQIPAPGSGVSFHIQIGLTREFVLLPAASELAHVKQLACSIVDQKFPECGFYGLYDKILLFKHDPTSANLLQLVRSSGDIQEGDLVEVVLSASATFEDFQIRPHALTVHSYRAPAFCDHCGEMLFGLVRQGLKCDGCGLNYHKRCAFSIPNNCSGARKRRLSSTSLASGHSVRLGTSESLPCTAEELSRSTTELLPRRPPSSSSSSSASSYTGRPIELDKMLLSKVKVPHTFLIHSYTRPTVCQACKKLLKGLFRQGLQCKDCKFNCHKRCATRVPNDCLGEALINGDVPMEEATDFSEADKSALMDESEDSGVIPGSHSENALHASEEEEGEGGKAQSSLGYIPLMRVVQSVRHTTRKSSTTLREGWVVHYSNKDTLRKRHYWRLDCKCITLFQNNTTNRYYKEIPLSEILTVESAQNFSLVPPGTNPHCFEIVTANATYFVGEMPGGTPGGPSGQGAEAARGWETAIRQALMPVILQDAPSAPGHAPHRQASLSISVSNSQIQENVDIATVYQIFPDEVLGSGQFGVVYGGKHRKTGRDVAVKVIDKLRFPTKQESQLRNEVAILQSLRHPGIVNLECMFETPEKVFVVMEKLHGDMLEMILSSEKGRLPERLTKFLITQILVALRHLHFKNIVHCDLKPENVLLASADPFPQVKLCDFGFARIIGEKSFRRSVVGTPAYLAPEVLLNQGYNRSLDMWSVGVIMYVSLSGTFPFNEDEDINDQIQNAAFMYPASPWSHISAGAIDLINNLLQVKMRKRYSVDKSLSHPWLQEYQTWLDLRELEGKMGERYITHESDDARWEQFAAEHPLPGSGLPTDRDLGGACPPQDHDMQGLAERISVL | GST-tagged PKD2 expressed in 293T cells and purified by pull down with glutathione beads was capable of directly phosphorylating bacterially produced GST-IFNAR1 on Ser535 in vitro | 
2 | GST-tagged PKD3 (human) expressed in 293T cells (protein) MSANNSPPSAQKSVLPTAIPAVLPAASPCSSPKTGLSARLSNGSFSAPSLTNSRGSVHTVSFLLQIGLTRESVTIEAQELSLSAVKDLVCSIVYQKFPECGFFGMYDKILLFRHDMNSENILQLITSADEIHEGDLVEVVLSALATVEDFQIRPHTLYVHSYKAPTFCDYCGEMLWGLVRQGLKCEGCGLNYHKRCAFKIPNNCSGVRKRRLSNVSLPGPGLSVPRPLQPEYVALPSEESHVHQEPSKRIPSWSGRPIWMEKMVMCRVKVPHTFAVHSYTRPTICQYCKRLLKGLFRQGMQCKDCKFNCHKRCASKVPRDCLGEVTFNGEPSSLGTDTDIPMDIDNNDINSDSSRGLDDTEEPSPPEDKMFFLDPSDLDVERDEEAVKTISPSTSNNIPLMRVVQSIKHTKRKSSTMVKEGWMVHYTSRDNLRKRHYWRLDSKCLTLFQNESGSKYYKEIPLSEILRISSPRDFTNISQGSNPHCFEIITDTMVYFVGENNGDSSHNPVLAATGVGLDVAQSWEKAIRQALMPVTPQASVCTSPGQGKDHKDLSTSISVSNCQIQENVDISTVYQIFADEVLGSGQFGIVYGGKHRKTGRDVAIKVIDKMRFPTKQESQLRNEVAILQNLHHPGIVNLECMFETPERVFVVMEKLHGDMLEMILSSEKSRLPERITKFMVTQILVALRNLHFKNIVHCDLKPENVLLASAEPFPQVKLCDFGFARIIGEKSFRRSVVGTPAYLAPEVLRSKGYNRSLDMWSVGVIIYVSLSGTFPFNEDEDINDQIQNAAFMYPPNPWREISGEAIDLINNLLQVKMRKRYSVDKSLSHPWLQDYQTWLDLREFETRIGERYITHESDDARWEIHAYTHNLVYPKHFIMAPNPDDMEEDP | this outcome was not seen when either PKD1 or PKD3 were used as a source of kinase | 
3 | Myc-tagged human CK1α immunopurified from 293T cells (protein) MASSSGSKAEFIVGGKYKLVRKIGSGSFGDIYLAINITNGEEVAVKLESQKARHPQLLYESKLYKILQGGVGIPHIRWYGQEKDYNVLVMDLLGPSLEDLFNFCSRRFTMKTVLMLADQMISRIEYVHTKNFIHRDIKPDNFLMGIGRHCNKLFLIDFGLAKKYRDNRTRQHIPYREDKNLTGTARYASINAHLGIEQSRRDDMESLGYVLMYFNRTSLPWQGLKAATKKQKYEKISEKKMSTPVEVLCKGFPAEFAMYLNYCRGLRFEEAPDYMYLRQLFRILFRTLNHQYDYTFDWTMLKQKAAQQAASSSGQGQQAQTPTGKQTDKTKSNMKGF |  | both immunopurified (FIG. 55C) and bacterially produced CK1α (FIG. 55E, lane 6) also phosphorylated GST4FNAR1 on Ser535 in vitro
4 | Myc-tagged human CK1ε immunopurified from 293T cells (protein) MELRVGNKYRLGRKIGSGSFGDIYLGANIASGEEVAIKLECVKTKHPQLHIESKFYKMMQGGVGIPSIKWCGAEGDYNVMVMELLGPSLEDLFNFCSRKFSLKTVLLLADQMISRIEYIHSKNFIHRDVKPDNFLMGLGKKGNLVYIIDFGLAKKYRDARTHQHIPYRENKNLTGTARYASINTHLGIEQSRRDDLESLGYVLMYFNLGSLPWQGLKAATKRQKYERISEKKMSTPIEVLCKGYPSEFSTYLNFCRSLRFDDKPDYSYLRQLFRNLFHRQGFSYDYVFDWNMLKFGAARNPEDVDRERREHEREERMGQLRGSATRALPPGPPTGATANRLRSAAEPVASTPASRIQPAGNTSPRAISRVDRERKVSMRLHRGAPANVSSSDLTGRQEVSRIPASQTSVPFDHLGK |  | immunopurified human CK18, CK1E, and protozoan parasite L-CK1 were active against IFNAR1S535 in the immunokinase assay in vitro
5 | GST-tagged PKD1 (human) expressed in 293T cells (protein) MSAPPVLRPPSPLLPVAAAAAAAAAALVPGSGPGPAPFLAPVAAPVGGISFHLQIGLSREPVLLLQDSSGDYSLAHVREMACSIVDQKFPECGFYGMYDKILLFRHDPTSENILQLVKAASDIQEGDLIEVVLSASATFEDFQIRPHALFVHSYRAPAFCDHCGEMLWGLVRQGLKCEGCGLNYHKRCAFKIPNNCSGVRRRRLSNVSLTGVSTIRTSSAELSTSAPDEPLLQKSPSESFIGREKRSNSQSYIGRPIHLDKILMSKVKVPHTFVIHSYTRPTVCQYCKKLLKGLFRQGLQCKDCRFNCHKRCAPKVPNNCLGEVTINGDLLSPGAESDVVMEEGSDDNDSERNSGLMDDMEEAMVQDAEMAMAECQNDSGEMQDPDPDHEDANRTISPSTSNNIPLMRVVQSVKHTKRKSSTVMKEGWMVHYTSKDTLRKRHYWRLDSKCITLFQNDTGSRYYKEIPLSEILSLEPVKTSALIPNGANPHCFEITTANVVYYVGENVVNPSSPSPNNSVLTSGVGADVARMWEIAIQHALMPVIPKGSSVGTGTNLHRDISVSISVSNCQIQENVDISTVYQIFPDEVLGSGQFGIVYGGKHRKTGRDVAIKIIDKLRFPTKQESQLRNEVAILQNLHHPGVVNLECMFETPERVFVVMEKLHGDMLEMILSSEKGRLPEHITKFLITQILVALRHLHFKNIVHCDLKPENVLLASADPFPQVKLCDFGFARIIGEKSFRRSVVGTPAYLAPEVLRNKGYNRSLDMWSVGVIIYVSLSGTFPFNEDEDIHDQIQNAAFMYPPNPWKEISHEAIDLINNLLQVKMRKRYSVDKTLSHPWLQDYQTWLDLRELECKIGERYITHESDDLRWEKYAGEQGLQYPTHLINPSASHSDTPETEETEMKALGERVSIL | this outcome was not seen when either PKD1 or PKD3 were used as a source of kinase | 
